The values that follow are results of earlier work, collected in paper PMC8277102.

In this data set the target is EmrA (Escherichia coli) (UniProt P27303). Briefly: SPR. On the technique in general: In SPR one partner is held on a chip, and binding of the other changes the refractive index at the surface.

For EmrA (from UniProt P27303), the Kd was 1870 nM.

Broadly, the Kd is the constant that tells how readily two partners part at equilibrium.
